Fewer inactive variants are shown than the library holds. Some results are limits rather than exact numbers.

Sequences and labels used below:
B1: TPR 5TU (parent)
chain: GGAUCUUCUCGAUCUAACAAAAAAGACAAAUCUGCCACAAAGCUUGAGAGCAUCUUCGGAUGCAGAGGCGGCAGCCUUCGGUGGCGCGAUAGCGCCAACGUUCUCAACUAUGACACGCAAAACGCGUGCUCCGUUGAAUGGAGUUUAUCAUG

The variants in the series derive from B1. Description: polymerase ribozyme fitness, log enrichment relative to wild type (log ratio); higher = more active; in vitro selection for triplet polymerase activity. In outline: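 For each subunit of a heterodimeric triplet polymerase ribozyme, a mutant library was built by PCR and transcribed, then taken through a single in vitro selection round in triplicate. Selection involved annealing to a biotinylated primer, the partner subunit and triplets, incubation frozen at −7 °C, gel excision of extended constructs, capture on streptavidin beads and RT-PCR. Genotypes were retained after Illumina sequencing of inputs and outputs only with ≥10 input reads and ≥1 read in each output. Fitness is defined as the logarithm of a genotype's enrichment relative to wild-type enrichment, using inverse-variance-weighted averages across replicates, with the logarithm taken to base 2.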
U56A C57U U61A C75A G88U A120U U139A G143C: the “polymerase ribozyme fitness (log ratio)” value is at most -4.2.

Turning to U55G G92U U139G U146G, the “polymerase ribozyme fitness (log ratio)” value was -1.4.

Turning to U55G U56A U82C, the “polymerase ribozyme fitness (log ratio)” value was -1.09.

With U56A G71U C125G, the “polymerase ribozyme fitness (log ratio)” value is -3.78.

On to U56A G92A U148G, for which the “polymerase ribozyme fitness (log ratio)” value was at most -4.2.

In the case of U56A G83C G100U, the “polymerase ribozyme fitness (log ratio)” value was at most -4.2.

For U56A A60U C93U G141U, the “polymerase ribozyme fitness (log ratio)” value is -3.71.

For the variant U56A G58U C69U C95A C96A C118U, the “polymerase ribozyme fitness (log ratio)” value is -2.19.

Consider U56A C149U, for which the “polymerase ribozyme fitness (log ratio)” value is -0.627.

U56A C93A A98U A107G C129U: the “polymerase ribozyme fitness (log ratio)” value was at most -4.2.

U56A G59A C105G A110G A150C: the “polymerase ribozyme fitness (log ratio)” value was at most -4.2.

As to U56A C76A A119U A121C G126U, the “polymerase ribozyme fitness (log ratio)” value was -1.11.

For the variant U56A A73G C87G, the “polymerase ribozyme fitness (log ratio)” value is at most -4.2.

U56A G83U C93G: the “polymerase ribozyme fitness (log ratio)” value was at most -4.2.

Consider U56A C85G C93G A107U U111G, for which the “polymerase ribozyme fitness (log ratio)” value is at most -4.2.

As for U55G U90G A97G U135G, the “polymerase ribozyme fitness (log ratio)” value is at most -4.2.

As to U56A C76U, the “polymerase ribozyme fitness (log ratio)” value was determined as 0.105.

For U56A C69G U148A, the “polymerase ribozyme fitness (log ratio)” value is -4.17.

In the case of U56A U61G A91C U127C U148C A150U, the “polymerase ribozyme fitness (log ratio)” value was at most -4.2.

Take U56A G84A U127G: the “polymerase ribozyme fitness (log ratio)” value was -3.06.

For the variant U56A C93U C116U, the “polymerase ribozyme fitness (log ratio)” value is -1.11.

In the case of U56A C75U G143A, the “polymerase ribozyme fitness (log ratio)” value is -0.711.

In the case of U56A G84A U90C C125A, the “polymerase ribozyme fitness (log ratio)” value is at most -4.2.

As for U56A C96U U145A G152A, the “polymerase ribozyme fitness (log ratio)” value was -2.

On to U56A U82C C87G A150U, for which the “polymerase ribozyme fitness (log ratio)” value was -3.31.

With U56A C85G, the “polymerase ribozyme fitness (log ratio)” value was -2.44.

Consider U56A C85U, for which the “polymerase ribozyme fitness (log ratio)” value is -0.564.

As for U56A C85A, the “polymerase ribozyme fitness (log ratio)” value was -2.02.

As to U56A G81A C103G A121G A122U, the “polymerase ribozyme fitness (log ratio)” value was -1.56.

U56A G117A: the “polymerase ribozyme fitness (log ratio)” value is -0.176.

As to U56A G117C, the “polymerase ribozyme fitness (log ratio)” value is -0.369.

Regarding U55G G86U, the “polymerase ribozyme fitness (log ratio)” value is -0.476.

As to U56A C79U C118G C132A, the “polymerase ribozyme fitness (log ratio)” value was -4.05.

For U56A C57U G83A, the “polymerase ribozyme fitness (log ratio)” value was found to be 0.0377.

In the case of U56A A60G, the “polymerase ribozyme fitness (log ratio)” value turned out to be 0.416.

For U56A G70C U78A U82A C131A, the “polymerase ribozyme fitness (log ratio)” value was at most -4.2.

In the case of U56A G58C C85U, the “polymerase ribozyme fitness (log ratio)” value is -0.365.

For the variant U56A A73U C79G G88A, the “polymerase ribozyme fitness (log ratio)” value was at most -4.2.

For the variant U55G G88U A97G U135G U148C, the “polymerase ribozyme fitness (log ratio)” value was at most -4.2.

For U56A G65A G94C A150U, the “polymerase ribozyme fitness (log ratio)” value was -1.57.

For the variant U56A C96U G133A, the “polymerase ribozyme fitness (log ratio)” value is at most -4.2.

In the case of U56A G83C C87U A89C C108U U144C, the “polymerase ribozyme fitness (log ratio)” value is at most -4.2.

Consider U56A C99U, for which the “polymerase ribozyme fitness (log ratio)” value was -0.614.

With U56A G81C A120C G141A, the “polymerase ribozyme fitness (log ratio)” value stood at 0.526.

As for U56A G58A C72U C87U U109G G136A U144C, the “polymerase ribozyme fitness (log ratio)” value was -4.13.

Take U56A A66C C72U G92A C93U C95A C116A: the “polymerase ribozyme fitness (log ratio)” value is at most -4.2.

As for U56A C57G A66U G84A A98G C103A C125A, the “polymerase ribozyme fitness (log ratio)” value was at most -4.2.

As to U56A G128C, the “polymerase ribozyme fitness (log ratio)” value was -2.8.

In the case of U56A C57A U144A, the “polymerase ribozyme fitness (log ratio)” value was -0.177.

Take U56A G59A A97U C149U: the “polymerase ribozyme fitness (log ratio)” value was -1.48.

On to U56A G58U A97C C99A, for which the “polymerase ribozyme fitness (log ratio)” value is -2.52.

Turning to U56A C57U G86C A98C G141A G152A, the “polymerase ribozyme fitness (log ratio)” value is -3.31.

Consider U56A G88C, for which the “polymerase ribozyme fitness (log ratio)” value is -4.12.

Take U56A G88U: the “polymerase ribozyme fitness (log ratio)” value is -3.06.

For U56A A60C G92U, the “polymerase ribozyme fitness (log ratio)” value is -1.73.

For U56A A91G, the “polymerase ribozyme fitness (log ratio)” value was -3.41.

Turning to U56A A113G, the “polymerase ribozyme fitness (log ratio)” value is -1.32.

Consider U56A C72G, for which the “polymerase ribozyme fitness (log ratio)” value was -3.76.

For the variant U56A C57A G84A, the “polymerase ribozyme fitness (log ratio)” value was -0.56.

Turning to U56A G58A C76U C123U C125G G143A, the “polymerase ribozyme fitness (log ratio)” value is 0.457.

U56A G74C: the “polymerase ribozyme fitness (log ratio)” value was -4.17.

U56A C95U C99U C125G: the “polymerase ribozyme fitness (log ratio)” value is -2.57.

For U56A C125G, the “polymerase ribozyme fitness (log ratio)” value was -1.56.

As for U56A G58C C93A G124A, the “polymerase ribozyme fitness (log ratio)” value was -2.36.

Take U55G U82A U148C: the “polymerase ribozyme fitness (log ratio)” value is -2.51.

As to U56A G58C C93U U127G U145A, the “polymerase ribozyme fitness (log ratio)” value was -3.83.

U56A A150C: the “polymerase ribozyme fitness (log ratio)” value was -3.35.

Consider U56A G80C G92A, for which the “polymerase ribozyme fitness (log ratio)” value was at most -4.2.

As for U56A A142U, the “polymerase ribozyme fitness (log ratio)” value is -0.643.

In the case of U56A G80U G84U U102G G124U, the “polymerase ribozyme fitness (log ratio)” value is at most -4.2.

For the variant U56A A73C G94C, the “polymerase ribozyme fitness (log ratio)” value is -3.51.

Consider U56A C69U C129U, for which the “polymerase ribozyme fitness (log ratio)” value was -0.94.

For U56A A97U, the “polymerase ribozyme fitness (log ratio)” value is -1.47.

Take U56A A97G: the “polymerase ribozyme fitness (log ratio)” value was -0.89.

For U56A G141A, the “polymerase ribozyme fitness (log ratio)” value stood at 0.775.

U56A A91G C95U C105G A120G: the “polymerase ribozyme fitness (log ratio)” value was -3.49.

With U56A G58C G92A A106G, the “polymerase ribozyme fitness (log ratio)” value was -3.51.

Take U56A G71U U78G C85U G143U: the “polymerase ribozyme fitness (log ratio)” value is at most -4.2.

Turning to U56A C125U A142C, the “polymerase ribozyme fitness (log ratio)” value was -3.74.

For the variant U55G U82G C85A A97C U104C G136U, the “polymerase ribozyme fitness (log ratio)” value is -3.65.

As to U56A G84U A89C A142U, the “polymerase ribozyme fitness (log ratio)” value was -3.24.

As for U56A C69A G84A, the “polymerase ribozyme fitness (log ratio)” value is -1.63.

As for U56A A91G U148C, the “polymerase ribozyme fitness (log ratio)” value was -3.72.

Take U56A G80U: the “polymerase ribozyme fitness (log ratio)” value is -0.898.

For the origin of these results see the RNAGym collection of RNA variant scans (doi:10.1073/pnas.2313332121).
